The assay addresses T1, KcsA K+ channel, wild type, P0A334.
T1 chain: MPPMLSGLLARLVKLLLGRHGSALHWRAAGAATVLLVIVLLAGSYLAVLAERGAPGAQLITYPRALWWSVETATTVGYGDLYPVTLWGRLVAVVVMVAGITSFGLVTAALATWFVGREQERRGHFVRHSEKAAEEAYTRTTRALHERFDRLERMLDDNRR
In words: SDS-PAGE of the tetramer. The conditions noted are these: remark: other sources report otherwise.

B1: KcsA K+ channel, wild type, P0A334 1-160 (natural protein)
chain: MPPMLSGLLARLVKLLLGRHGSALHWRAAGAATVLLVIVLLAGSYLAVLAERGAPGAQLITYPRALWWSVETATTVGYGDLYPVTLWGRLVAVVVMVAGITSFGLVTAALATWFVGREQERRGHFVRHSEKAAEEAYTRTTRALHERFDRLERMLDDNRR
What is called stoichiometry N is the number of molecules, sites or subunits per partner or assembly. Consider B1, for which the stoichiometry N is 4.

Values taken from article PMC2268108.
